Source: PMC4610412 (2016)
Where no end group is shown, it is not given here. [ ]: non-standard residue; d: D form. pT = C[C@@H](OP(=O)(O)O)[C@H](N)C(=O)O; pS = N[C@@H](COP(=O)(O)O)C(=O)O

How the values were obtained:
pCdc25C = molecular target: T1, pCdc25C (Homo sapiens); assay: ITC
T1 chain: EQPL[pT]PVTDL

trans-locked inhibitor = molecular target: T2, trans-locked inhibitor (also: trans-locked alkene isostere, place not given here); assay: NMR titration
T2 chain: FF[pS]PR

cis-locked inhibitor = molecular target: T3, cis-locked inhibitor (also: cis-locked alkene isostere, place not given here); assay: NMR titration
T3 chain: FF[pS]PR

Kd (pCdc25C): > 1000 µM
Kd (trans-locked inhibitor): 66 µM
Kd (cis-locked inhibitor): 7 µM
B1: Pin1 PPIase domain (isolated) PPIase (protein)
chain: PARVRCSHLLVKHSQSRRPSSWRQEKITRTKEEALELINGYIQKIKSGEEDFESLASQFSDCSSAKARGDLGAFSRGQMQKPFEDASFALRTGEMSGPVFTDSGIHIILRTE
